This is an account of results in US20030108549A1 (GENETICS INSTITUTE, published 2003).

In this assay the target is T1, human MU-1 Ig fusion protein (human, UniProt Q9HBE5 20-235).
T1 construct: also called MUFc; human Ig fusion protein; not shown: Ig portion
The assay can be described thus: Biacore; MU-1 Ig fusion immobilized on chip. Here is the method:
Both human and murine Ig fusion proteins were constructed and immobilized on Biacore chips in an effort to identify the ligand for MU-1. A variety of cell culture conditioned media as well as a panel of known cytokines were evaluated for binding to MU-1. Some cytokines were also tested in combination with other receptor chains in the family to consider the possibility that MU-1 may require a second receptor chain for ligand binding. The following cytokines were tested and found to be negative for MU-1 binding: mIL-2, hIL-2, hIL-i5, mIL-7, TSLP, TSLP+IL7, TSLP+IL7R, TSLP+IL7g, TSLP+IL-2, TSLP+1L2+IL2Rbeta, IL2Rbeta, IL2Rgamma, IL7R, IL2+2Rbeta, IL2+2Rgamma, IL1 5+IL2Rbeta, 1L15+2Rgamma, 1IL7+2Rgamma, IL2+IL7R, IL1 5+IL7R, IL7+IL7R. Known receptors have been immobilized as well and tested for MUFc binding with negative results. IL-IS will bind to IL2Rb but not IL2Rg or MUFc.

T1 sequence (Q9HBE5 20-235): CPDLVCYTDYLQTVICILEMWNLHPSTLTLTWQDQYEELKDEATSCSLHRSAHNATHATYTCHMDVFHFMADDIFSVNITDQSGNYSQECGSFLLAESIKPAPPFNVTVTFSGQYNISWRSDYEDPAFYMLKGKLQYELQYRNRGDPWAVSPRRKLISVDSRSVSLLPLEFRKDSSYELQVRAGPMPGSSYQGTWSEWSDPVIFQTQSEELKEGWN

B1: mIL-2 (ligand, mouse, UniProt P04351 21-169, looked up)
chain: APTSSSTSSSTAEAQQQQQQQQQQQQHLEQLLMDLQELLSRMENYRNLKLPRMLTFKFYLPKQATELKDLQCLEDELGPLRHVLDLTQSKSFQLEDAENFISNIRVTVVKLKGSDNTFECQFDDESATVVDFLRRWIAFCQSIISTSPQ
With B1, the binding result is recorded as “no binding”.

B2: mIL-7 (ligand, mouse, UniProt P10168 26-154, looked up)
chain: ECHIKDKEGKAYESVLMISIDELDKMTGTDSNCPNNEPNFFRKHVCDDTKEAAFLNRAARKLKQFLKMNISEEFNVHLLTVSQGTQTLVNCTSKEEKNVKEQKKNDACFLKRLLREIKTCWNKILKGSI
B2: the binding result is “no binding”.
